The values that follow come from IntAct's records for PubMed 20972448.

In the assay the target is xpo1_mouse Xpo1 (UniProt Q6P5F9).
Chain of UniProt Q6P5F9 (Q6P5F9 whole entry): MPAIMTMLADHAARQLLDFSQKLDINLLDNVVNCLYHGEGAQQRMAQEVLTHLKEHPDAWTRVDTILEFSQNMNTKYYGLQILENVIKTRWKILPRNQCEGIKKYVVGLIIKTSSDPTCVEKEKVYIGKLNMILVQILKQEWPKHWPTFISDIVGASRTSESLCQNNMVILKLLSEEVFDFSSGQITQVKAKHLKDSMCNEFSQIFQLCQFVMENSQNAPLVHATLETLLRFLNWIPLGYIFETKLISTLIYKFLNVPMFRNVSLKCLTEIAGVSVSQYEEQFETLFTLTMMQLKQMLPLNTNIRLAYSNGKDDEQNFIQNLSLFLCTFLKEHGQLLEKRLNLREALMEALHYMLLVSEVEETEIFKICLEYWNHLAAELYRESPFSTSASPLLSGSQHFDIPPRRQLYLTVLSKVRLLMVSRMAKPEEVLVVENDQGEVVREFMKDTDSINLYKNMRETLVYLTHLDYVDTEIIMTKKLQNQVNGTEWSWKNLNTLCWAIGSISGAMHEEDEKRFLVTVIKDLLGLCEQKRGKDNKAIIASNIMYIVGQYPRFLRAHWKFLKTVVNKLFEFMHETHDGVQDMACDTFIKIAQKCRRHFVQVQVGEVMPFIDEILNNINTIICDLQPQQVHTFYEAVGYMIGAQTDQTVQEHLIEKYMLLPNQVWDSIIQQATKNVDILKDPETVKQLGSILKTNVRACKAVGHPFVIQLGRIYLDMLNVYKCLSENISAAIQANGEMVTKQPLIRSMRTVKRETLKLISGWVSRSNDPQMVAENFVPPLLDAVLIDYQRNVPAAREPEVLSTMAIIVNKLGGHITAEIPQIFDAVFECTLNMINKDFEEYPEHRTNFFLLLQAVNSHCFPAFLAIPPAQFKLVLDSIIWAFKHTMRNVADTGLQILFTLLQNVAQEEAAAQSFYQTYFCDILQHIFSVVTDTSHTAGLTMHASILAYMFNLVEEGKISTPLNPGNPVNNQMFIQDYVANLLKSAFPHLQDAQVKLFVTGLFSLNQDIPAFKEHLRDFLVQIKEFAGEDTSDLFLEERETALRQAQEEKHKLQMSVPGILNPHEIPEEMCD

“cAMP-dependent protein kinase inhibitor alpha (Homo sapiens) (from UniProt P61925) S35L”: the “effect of a mutation on the interaction” value is reported as “increasing interaction”.
